Data published in patent US7132258 (UNIVERSITY OF MASSACHUSETTS, dated 2006).

B1: 35S-labeled hRARα (in vitro translated) (receptor, human, UniProt P10276 1-462, looked up)
chain: MASNSSSCPTPGGGHLNGYPVPPYAFFFPPMLGGLSPPGALTTLQHQLPVSGYSTPSPATIETQSSSSEEIVPSPPSPPPLPRIYKPCFVCQDKSSGYHYGVSACEGCKGFFRRSIQKNMVYTCHRDKNCIINKVTRNRCQYCRLQKCFEVGMSKESVRNDRNKKKKEVPKPECSESYTLTPEVGELIEKVRKAHQETFPALCQLGKYTTNNSSEQRVSLDIDLWDKFSELSTKCIIKTVEFAKQLPGFTTLTIADQITLLKAACLDILILRICTRYTPEQDTMTFSDGLTLNRTQMHNAGFGPLTDLVFAFANQLLPLEMDDAETGLLSAICLICGDRQDLEQPDRVDMLQEPLLEALKVYVRKRRPSRPHMFPKMLMKITDLRSISAKGAERVITLKMEIPGSMPPLIQEMLENSEGLDTLSGQPGGGGRDGGGLAPPPGSCSPSLSPSSNRSSPATHSP
notes: Made in reticulocyte lysate; also called 35S-RAR

What was measured:
[1] = target: T1, full-length RAC3 (in vitro translated, 35S-labeled or unlabeled) (human, UniProt Q9Y6Q9 2-1424); assay: trimeric far-Western: unlabeled full-length RAC3 held on CBP fragments C and D, then 35S-labeled RAR, with ligand
T1 construct: Made in reticulocyte lysate; also called 35S-RAC3
T1 sequence (Q9Y6Q9 other isoform, or with tags, fused parts or gaps limits assumed): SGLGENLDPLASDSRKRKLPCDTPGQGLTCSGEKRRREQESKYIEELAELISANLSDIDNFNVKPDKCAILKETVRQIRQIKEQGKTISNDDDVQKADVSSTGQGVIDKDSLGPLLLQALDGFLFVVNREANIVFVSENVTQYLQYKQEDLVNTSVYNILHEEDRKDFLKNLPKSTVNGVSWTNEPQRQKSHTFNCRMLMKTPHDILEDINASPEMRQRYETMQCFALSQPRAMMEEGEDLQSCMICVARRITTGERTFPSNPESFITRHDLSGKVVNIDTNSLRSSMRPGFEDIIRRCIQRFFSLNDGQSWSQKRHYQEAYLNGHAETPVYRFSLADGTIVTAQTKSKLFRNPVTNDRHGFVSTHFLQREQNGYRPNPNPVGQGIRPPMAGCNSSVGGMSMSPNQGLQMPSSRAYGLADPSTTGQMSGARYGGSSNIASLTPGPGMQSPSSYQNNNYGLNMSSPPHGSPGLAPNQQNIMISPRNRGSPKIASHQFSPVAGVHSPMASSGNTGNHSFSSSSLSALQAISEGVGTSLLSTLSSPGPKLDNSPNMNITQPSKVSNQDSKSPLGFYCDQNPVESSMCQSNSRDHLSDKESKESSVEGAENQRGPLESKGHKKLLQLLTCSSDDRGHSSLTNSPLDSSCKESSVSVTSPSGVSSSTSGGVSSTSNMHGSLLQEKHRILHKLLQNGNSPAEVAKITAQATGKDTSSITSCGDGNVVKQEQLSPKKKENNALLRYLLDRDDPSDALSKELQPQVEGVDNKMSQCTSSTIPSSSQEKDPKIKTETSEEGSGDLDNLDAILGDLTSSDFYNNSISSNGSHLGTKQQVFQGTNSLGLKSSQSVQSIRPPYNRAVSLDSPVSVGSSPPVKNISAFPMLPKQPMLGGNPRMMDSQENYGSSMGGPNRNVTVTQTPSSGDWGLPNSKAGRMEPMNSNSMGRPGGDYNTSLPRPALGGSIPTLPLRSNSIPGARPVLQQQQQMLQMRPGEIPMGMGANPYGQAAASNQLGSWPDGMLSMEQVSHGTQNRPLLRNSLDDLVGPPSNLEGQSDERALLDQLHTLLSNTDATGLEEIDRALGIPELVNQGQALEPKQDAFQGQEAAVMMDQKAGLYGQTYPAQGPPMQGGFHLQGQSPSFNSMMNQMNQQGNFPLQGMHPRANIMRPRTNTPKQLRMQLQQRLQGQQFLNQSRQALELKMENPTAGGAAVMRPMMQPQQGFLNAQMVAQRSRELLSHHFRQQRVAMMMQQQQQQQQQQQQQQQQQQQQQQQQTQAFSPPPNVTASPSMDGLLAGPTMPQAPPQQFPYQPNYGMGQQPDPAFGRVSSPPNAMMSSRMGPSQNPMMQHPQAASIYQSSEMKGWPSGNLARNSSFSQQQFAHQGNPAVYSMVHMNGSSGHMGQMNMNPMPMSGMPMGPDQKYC

[2] = target: T2, VP16 AD-full-length hRARα fusion (human, UniProt P10276 1-462); assay: mammalian two-hybrid, luciferase reporter, with or without 1 µM atRA
T2 construct: mature; also called VP16-RAR
T2 sequence: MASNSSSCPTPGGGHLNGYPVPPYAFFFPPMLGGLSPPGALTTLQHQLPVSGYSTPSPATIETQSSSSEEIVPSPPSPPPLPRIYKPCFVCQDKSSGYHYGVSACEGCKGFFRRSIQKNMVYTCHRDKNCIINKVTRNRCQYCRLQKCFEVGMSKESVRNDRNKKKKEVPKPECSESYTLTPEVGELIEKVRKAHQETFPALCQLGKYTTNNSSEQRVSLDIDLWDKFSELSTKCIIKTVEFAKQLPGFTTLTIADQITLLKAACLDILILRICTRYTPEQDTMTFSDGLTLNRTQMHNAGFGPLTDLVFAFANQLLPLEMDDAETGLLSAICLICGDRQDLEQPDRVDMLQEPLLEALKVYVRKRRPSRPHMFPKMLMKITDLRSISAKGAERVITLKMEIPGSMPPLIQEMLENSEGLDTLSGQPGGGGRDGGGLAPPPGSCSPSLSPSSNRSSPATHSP

[3] = target: T3, RAC3.1 (yeast two-hybrid clone, RAC3 amino acids 401-1204) as Gal4 AD fusion (human, UniProt Q9Y6Q9 401-1204); assay: yeast two-hybrid, β-galactosidase ONPG assay, 1 µM ligand
T3 construct: Order of the fusion (Gal4 AD at the N-terminus) follows the vector; also called Gal4 AD fusion (RAC3.1)
T3 sequence: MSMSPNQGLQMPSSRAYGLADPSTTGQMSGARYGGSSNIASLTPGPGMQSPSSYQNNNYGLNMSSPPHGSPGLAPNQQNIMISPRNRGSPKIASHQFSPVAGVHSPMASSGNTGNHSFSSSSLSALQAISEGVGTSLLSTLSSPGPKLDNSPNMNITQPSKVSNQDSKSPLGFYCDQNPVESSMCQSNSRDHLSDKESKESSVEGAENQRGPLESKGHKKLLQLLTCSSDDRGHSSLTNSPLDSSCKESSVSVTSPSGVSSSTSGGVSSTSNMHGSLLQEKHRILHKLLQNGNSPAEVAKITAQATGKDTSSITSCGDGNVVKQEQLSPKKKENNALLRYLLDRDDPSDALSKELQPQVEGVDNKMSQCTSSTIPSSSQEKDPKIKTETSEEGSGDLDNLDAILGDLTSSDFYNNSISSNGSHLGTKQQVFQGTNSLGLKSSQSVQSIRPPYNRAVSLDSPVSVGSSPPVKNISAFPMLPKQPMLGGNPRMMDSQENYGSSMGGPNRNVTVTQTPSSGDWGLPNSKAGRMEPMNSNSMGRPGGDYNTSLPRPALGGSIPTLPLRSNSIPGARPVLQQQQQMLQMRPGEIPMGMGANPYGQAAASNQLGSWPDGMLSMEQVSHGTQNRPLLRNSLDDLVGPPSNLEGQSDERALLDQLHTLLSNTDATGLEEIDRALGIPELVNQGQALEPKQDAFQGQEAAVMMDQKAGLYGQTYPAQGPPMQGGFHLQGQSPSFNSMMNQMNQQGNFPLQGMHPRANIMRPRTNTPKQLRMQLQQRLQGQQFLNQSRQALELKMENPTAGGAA

[4] = target: T3, RAC3.1 (yeast two-hybrid clone, RAC3 …); assay: yeast two-hybrid, β-galactosidase liquid ONPG assay
[5] = target: B1; assay: far-Western, GST-RAC3-RID on the filter, 35S-labeled receptor, 1 µM all-trans retinoic acid
[6] = target: T3, RAC3.1 (yeast two-hybrid clone, RAC3 …); assay: yeast two-hybrid, with or without 1 µM ligand
[7] = target: T3, RAC3.1 (yeast two-hybrid clone, RAC3 …); assay: yeast two-hybrid screen for RAR-interacting proteins, Gal4 DBD-full-length hRARα as bait, HIS3 and LacZ reporters

B1
binding result [1]: binds

B2: RAC3 amino acids 401-695 as GAL4 DBD fusion (pCMX-Gal) (other)
chain: MKLLSSIEQACDICRLKKLKCSKEKPKCAKCLKNNWECRYSPKTKRSPLTRAHLTEVESRLERLEQLFLLIFPREDLDMILKMDSLQDIKALLTGLFVQDNVNKDAVTDRLASVETDMPLTLRQHRISATSSSEESSNKGQRQLTVSMSMSPNQGLQMPSSRAYGLADPSTTGQMSGARYGGSSNIASLTPGPGMQSPSSYQNNNYGLNMSSPPHGSPGLAPNQQNIMISPRNRGSPKIASHQFSPVAGVHSPMASSGNTGNHSFSSSSLSALQAISEGVGTSLLSTLSSPGPKLDNSPNMNITQPSKVSNQDSKSPLGFYCDQNPVESSMCQSNSRDHLSDKESKESSVEGAENQRGPLESKGHKKLLQLLTCSSDDRGHSSLTNSPLDSSCKESSVSVTSPSGVSSSTSGGVSSTSNMHGSLLQEKHRILHKLLQNGNSP
notes: domain: GAL4 DBD
binding result [2]: no binding

B3: Gal4 DBD fusion of full-length hRXRα (receptor, UniProt P04386 1-147, looked up)
chain: MKLLSSIEQACDICRLKKLKCSKEKPKCAKCLKNNWECRYSPKTKRSPLTRAHLTEVESRLERLEQLFLLIFPREDLDMILKMDSLQDIKALLTGLFVQDNVNKDAVTDRLASVETDMPLTLRQHRISATSSSEESSNKGQRQLTVSMDTKHFLPLDFSTQVNSSLTSPTGRGSMAAPSLHPSLGPGIGSPGQLHSPISTLSSPINGMGPPFSVISSPMGPHSMSVPTTPTLGFSTGSPQLSSPMNPVSSSEDIKPPLGLNGVLKVPAHPSGNMASFTKHICAICGDRSSGKHYGVYSCEGCKGFFKRTVRKDLTYTCRDNKDCLIDKRQRNRCQYCRYQKCLAMGMKREAVQEERQRGKDRNENEVESTSSANEDMPVERILEAELAVEPKTETYVEANMGLNPSSPNDPVTNICQAADKQLFTLVEWAKRIPHFSELPLDDQVILLRAGWNELLIASFSHRSIAVKDGILLATGLHVHRNSAHSAGVGAIFDRVLTELVSKMRDMQMDKTELGCLRAIVLFNPDSKGLSNPAEVEALREKVYASLEAYCKHKYPEQPGRFAKLLLRLPALRSIGLKCLEHLFFFKLIGDTPIDTFLMEMLEAPHQMT
notes: domain: Gal4 DBD;mature
binding result [3]: binds

B4: SNF1 (other, UniProt P06782 1-633, looked up)
chain: MSSNNNTNTAPANANSSHHHHHHHHHHHHHGHGGSNSTLNNPKSSLADGAHIGNYQIVKTLGEGSFGKVKLAYHTTTGQKVALKIINKKVLAKSDMQGRIEREISYLRLLRHPHIIKLYDVIKSKDEIIMVIEYAGNELFDYIVQRDKMSEQEARRFFQQIISAVEYCHRHKIVHRDLKPENLLLDEHLNVKIADFGLSNIMTDGNFLKTSCGSPNYAAPEVISGKLYAGPEVDVWSCGVILYVMLCRRLPFDDESIPVLFKNISNGVYTLPKFLSPGAAGLIKRMLIVNPLNRISIHEIMQDDWFKVDLPEYLLPPDLKPHPEEENENNDSKKDGSSPDNDEIDDNLVNILSSTMGYEKDEIYESLESSEDTPAFNEIRDAYMLIKENKSLIKDMKANKSVSDELDTFLSQSPPTFQQQSKSHQKSQVDHETAKQHARRMASAITQQRTYHQSPFMDQYKEEDSTVSILPTSLPQIHRANMLAQGSPAASKISPLVTKKSKTRWHFGIRSRSYPLDVMGEIYIALKNLGAEWAKPSEEDLWTIKLRWKYDIGNKTNTNEKIPDLMKMVIQLFQIETNNYLVDFKFDGWESSYGDDTTVSNISEDEMSTFSAYPFLHLTTKLIMELAVNSQSN
binding result [4]: no binding

B5: RAC3 amino acids 401-624 as GAL4 DBD fusion (pCMX-Gal) (other)
chain: MKLLSSIEQACDICRLKKLKCSKEKPKCAKCLKNNWECRYSPKTKRSPLTRAHLTEVESRLERLEQLFLLIFPREDLDMILKMDSLQDIKALLTGLFVQDNVNKDAVTDRLASVETDMPLTLRQHRISATSSSEESSNKGQRQLTVSMSMSPNQGLQMPSSRAYGLADPSTTGQMSGARYGGSSNIASLTPGPGMQSPSSYQNNNYGLNMSSPPHGSPGLAPNQQNIMISPRNRGSPKIASHQFSPVAGVHSPMASSGNTGNHSFSSSSLSALQAISEGVGTSLLSTLSSPGPKLDNSPNMNITQPSKVSNQDSKSPLGFYCDQNPVESSMCQSNSRDHLSDKESKESSVEGAENQRGPLESKGHKKLLQL
notes: domain: GAL4 DBD
binding result [2]: no binding

B6: GST-RAC3-RID fusion (other)
chain: LESKGHKKLLQLLTCSSDDRGHSSLTNSPLDSSCKESSVSVTSPSGVSSSTSGGVSSTSNMHGSLLQEKHRILHKLLQNGNSPAEVAKITAQATGKDTSSITSCGDGNVVKQEQLSPKKKENNALLRYLLDRDDPSDALS
notes: Purified from DH5α cells, separated by SDS-PAGE, blotted, denatured and renatured on the filter; also called GST-RID fusion; not shown: glutathione S-transferase (GST) module
binding result [5]: binds

B7: VDR364* (LBD of hVDR truncated at amino acid 364) as Gal4 DBD fusion (receptor, UniProt P04386 1-147, looked up)
chain: MKLLSSIEQACDICRLKKLKCSKEKPKCAKCLKNNWECRYSPKTKRSPLTRAHLTEVESRLERLEQLFLLIFPREDLDMILKMDSLQDIKALLTGLFVQDNVNKDAVTDRLASVETDMPLTLRQHRISATSSSEESSNKGQRQLTVSMKEFILTDEEVQRKREMILKRKEEEALKDSLRPKLSEEQQRIIAILLDAHHKTYDPTYSDFCQFRPPVRVNDGGGSHPSRPNSRHTPSFSGDSSSSCSDHCITSSDMMDSSSFSNLDLSEEDSDDPSVTLELSQLSMLPHLADLVSYSIQKVIGFAKMIPGFRDLTSEDQIVLLKSSAIEVIMLRSNESFTMDDMSWTCGNQDYKYRVSDVTKAGHSLELIEPLIKFQVGLKKLNLHEEEHVLLMAICIVSPDRPGVQDAALIEAIQDRLSNTLQ
notes: domain: Gal4 DBD;domain: LBD of hVDR truncated at amino acid 364
binding result [6]: no binding

B8: Gal4 DBD fusion of full-length human RARα (receptor, UniProt P04386 1-147, looked up)
chain: MKLLSSIEQACDICRLKKLKCSKEKPKCAKCLKNNWECRYSPKTKRSPLTRAHLTEVESRLERLEQLFLLIFPREDLDMILKMDSLQDIKALLTGLFVQDNVNKDAVTDRLASVETDMPLTLRQHRISATSSSEESSNKGQRQLTVSMASNSSSCPTPGGGHLNGYPVPPYAFFFPPMLGGLSPPGALTTLQHQLPVSGYSTPSPATIETQSSSSEEIVPSPPSPPPLPRIYKPCFVCQDKSSGYHYGVSACEGCKGFFRRSIQKNMVYTCHRDKNCIINKVTRNRCQYCRLQKCFEVGMSKESVRNDRNKKKKEVPKPECSESYTLTPEVGELIEKVRKAHQETFPALCQLGKYTTNNSSEQRVSLDIDLWDKFSELSTKCIIKTVEFAKQLPGFTTLTIADQITLLKAACLDILILRICTRYTPEQDTMTFSDGLTLNRTQMHNAGFGPLTDLVFAFANQLLPLEMDDAETGLLSAICLICGDRQDLEQPDRVDMLQEPLLEALKVYVRKRRPSRPHMFPKMLMKITDLRSISAKGAERVITLKMEIPGSMPPLIQEMLENSEGLDTLSGQPGGGGRDGGGLAPPPGSCSPSLSPSSNRSSPATHSP
notes: domain: Gal4 DBD;mature; also called full-length hRARα; pGBT-hRARα
binding result [7]: binds
